± gives the half width of the 95% confidence interval.
Tests used:
[1] = folding stability dG unfold from chymotrypsin proteolysis; higher = more stable
Summary of the method: (§1)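 Unfolding free energy was derived, per protease or combined, against a sequence-predicted unfolded-state K50 and a shared folded-state K50, starting from K50 inferred by Bayesian fitting of sequencing counts. Digestion with trypsin and chymotrypsin was carried out on designed mini-proteins under 80 residues without cysteine in a PA-tagged cDNA display construct. Only designs with AlphaFold2 dimer inter-PAE above 15 were kept.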

[2] = folding stability dG unfold (combined trypsin and chymotrypsin); higher = more stable
Summary of the method: as §1

[3] = folding stability dG unfold from trypsin proteolysis; higher = more stable
Summary of the method: as §1

Row | Sequence | folding stability dG unfold [1] [kcal/mol] | folding stability dG unfold [2] [kcal/mol] | folding stability dG unfold [3] [kcal/mol]
1 | SAGGDVTISIMIFVWPGWTEEQYKEMAKEVAKTIARQLAQKNPDLNENIDIEDIEVTIIPMEGDPDYFSAGG [r13_128_TrROS] | 1.35 ± 0.1 | 1.68 ± 0.19 | 1.91 ± 0.049
2 | SAGGEAEVVARAEVTLPDGVKVEVEVVRVDGKLVVRVRVEVRLPPPPPPPPPPLPPLSEEERKKLAEASAGG [r13_760_TrROS_Hall] | 2.09 ± 0.16 | 2.18 ± 0.22 | 2.09 ± 0.091
3 | SAGGEAEVVEPEEKLEIVDKETGKKITVYKVKNKETGEEVVLVEIEKNGKKYTVLMTKDELEALLKKSAGGS [r16_603_TrROS_Hall] | 3.29 ± 0.057 | 2.98 ± 0.28 | 2.38 ± 0.21
4 | SAGGEEEAVEKPFYQLPEKKPLKTVPMSREEALALARENPDLGILYAEEDGKLWKVDAETGTIEPLGSAGGS [r16_214_JUSTAS] | 1.58 ± 0.11 | 1.46 ± 0.14 | 1.23 ± 0.043
5 | SAGGEEEEFEVVAEIEIEVDGKTYTITIVRDKETDEYRVEIRNKETGETKTITVSAEELEELLKALSSAGGS [r8_469_TrROS_Hall] | 4.77 ± 0.32 | 4.77 ± 0.52 | 3.17 ± 0.36
6 | SAGGEEVVEEPPPPEVEVIEIRDAETDRTVTLVYNKDTGKLFLFDEDTGLVYEFDVDGRLVRVERLPPSAGG [r13_101_TrROS_Hall] | 4.48 ± 0.1 | 4.16 ± 0.39 | 2.95 ± 0.26
7 | SAGGEEVVVERPPAPPPITVTIEYDEETNTVTVTVTLPNGETLTITVEAPSLEEAEAAARELLEALSSAGGS [r16_319_TrROS_Hall] | 2.96 ± 0.37 | 2.93 ± 0.31 | 2.66 ± 0.28
8 | SAGGEFEVEELPPGGLLLVTFRAPADLPLEIPLEFTSPDGSPVEVAEYEREPFGDYVLITVLVRVPDSAGGS [r16_499_TrMRF] | 2.77 ± 0.16 | 2.73 ± 0.18 | 2.25 ± 0.16
9 | SAGGEFEVYRVKSPDSVVTVTVLPDRVVVNLTDEKNPKVVPIPYPPGHPPTLEDVLALLKSLGFKVEPSAGG [r13_687_TrMRF] | 1.65 ± 0.043 | 1.79 ± 0.041 | 1.85 ± 0.033
10 | SAGGEFLEKVIEAAIEAAKAGPDAKLELTIPVPGGPVKVTIEVGEDGKVKVTIYKGDKKILEIELPLSAGGS [r16_611_TrMRF] | 4.62 ± 0.34 | > 6 | 3.85 ± 0.35
11 | SAGGEFRITFMVPADPNDPAVELAKWIADEFMPPGWKVEVDIKVVPSPDGYYMIDIPVEIMPPGQPISAGGS [r16_128_TrROS] | 2.81 ± 0.047 | 2.49 ± 0.18 | 1.71 ± 0.14
12 | SAGGEIAKRFAKYARDAGYDVRVDVEIIPPDEFPGLKPGKPYVIKVEIEVTPPNGPRRPLGEFTIMINSAGG [r13_874_TrROS] | 3.18 ± 0.046 | 2.82 ± 0.08 | 2.13 ± 0.06
13 | SAGGEIEILLEDGTLLRIRVELDEDGNLRVTVELFRLEPPPAPEVVVERREEREERRVLFADSAEDLSAGGS [r16_802_TrROS_Hall] | 2.27 ± 0.1 | 1.75 ± 0.15 | 0.941 ± 0.06
14 | SAGGEIPPNAKIDELEISPGSGYIRIKVEFYDPDGKPIWKMTITIPIKPVPRPSPEDQKEQNKKNKKSAGGS [r16_697_TrROS] | 2.68 ± 0.12 | 2.39 ± 0.67 | 1.36 ± 0.18
15 | SAGGEKDLYLVKYRVEIKNDKGEKKEFPVTAIATSLEELEETLKALTPKNAEAKVEILEVKPLKEVLSSAGG [r13_513_TrMRF] | 1.55 ± 0.038 | 1.72 ± 0.1 | 1.86 ± 0.091
16 | SAGGEKVKLRIYVYRRTVERDPATGELRERYELVEEIEIEVEPGETLEDILAKLKLPPGWRIVRVERESAGG [r13_716_TrROS_Hall] | 5.424 ± 0.053 | 5.24 ± 0.076 | 4.39 ± 0.091
17 | SAGGEKVKRVLVRDKKTKEWREVEVKEAKVEPPPVITIKIELSEEEAKKLAELLRKLFPDAKVTVVKSAGGS [r8_437_TrROS_Hall] | 3.82 ± 0.24 | 3.98 ± 0.31 | 4.15 ± 0.35
18 | SAGGEMELTLTVTIKVENLTKEQIEEELRKLLEELGFEIEEITVEYDEENKTITVTVRIRLPPLEDLSAGGS [r16_287_TrROS_Hall] | 2.98 ± 0.23 | 3.15 ± 0.25 | 3.15 ± 0.27
19 | SAGGEMVEIVVKFKTKEELEAAIRAALPPGATVEVTVEEKDGELYLTITVPKENAERLREALKKALESAGGS [r16_43_TrROS_Hall] | 4.48 ± 0.13 | 4.57 ± 0.28 | 4.2 ± 0.28
20 | SAGGENYTFEMEITIPIPLPNPNGKLKKLPIKVPIEYEYDDPAQRNQAMQNMIMRIIDLALKELGVPSAGGS [r16_339_TrROS] | 2.12 ± 0.04 | 1.9 ± 0.16 | 1.46 ± 0.048
21 | SAGGESYPFIGRNPETNALIEVTVTKLESGEYLVNATITNPNGETVEFPFTFPANSLTPESEIDVTITSAGG [r13_959_TrMRF] | 1.21 ± 0.074 | 1.44 ± 0.054 | 1.65 ± 0.051

Row | Sequence | folding stability dG unfold [1] [kcal/mol] | folding stability dG unfold [2] [kcal/mol] | folding stability dG unfold [3] [kcal/mol]
22 | SAGGETKTFTIDEIRAKLKEALDNGIDEVRITVFRDGKEEEITIPASKLDEIIASLPPDATVRIERVSAGGS [r16_636_TrROS_Hall] | 1.86 ± 0.11 | 1.97 ± 0.13 | 2.02 ± 0.042
23 | SAGGETVTTESYQPLPTGPGLSFKNVVTTEEDVNNPGVKYTTTEVTAELVNPEGDESTTTTSTVTAASAGGS [r16_217_JUSTAS] | 0.00547 ± 0.22 | 0.112 ± 0.14 | 0.0281 ± 0.035
24 | SAGGEVKYEHEGKNPDNGNMYKQEQEVPPVPIPPVIVIPAEDLDEFRELGIPENFKILPGNGWIVITSAGGS [r16_194_TrROS] | 0.154 ± 0.25 | 0.425 ± 0.13 | 0.44 ± 0.091
25 | SAGGEVRLRLEAELLPDGTLVLRGRVEVRVGDRVFEFEFELVLRLEPVPPPPAPARPLLIPERLLDASAGGS [r8_269_TrMRF] | 2.4 ± 0.065 | 2.13 ± 0.12 | 1.47 ± 0.098
26 | SAGGEWHEISIKFPNPEEIEEALREAFPPGMDVDPDVEPNPNGWEVEIEVPRNNPDRVQNAIKEALDSAGGS [r16_43_TrROS] | 0.469 ± 0.031 | 0.492 ± 0.11 | 0.452 ± 0.035
27 | SAGGEWRKITVPIKYRFPPGESIDSIANELANLPGLKVEVNVEYEKDPDGRYYMEIPVEIEIPPGAPISAGG [r13_590_TrROS] | 0.669 ± 0.16 | 0.576 ± 0.12 | 0.341 ± 0.074
28 | SAGGFEEKVKAGEEVVDVVAPITLPDGTEAVVTRVEPVDDGLLVTLRPPWTGEEVELPLPASEIPKLPSAGG [r13_340_JUSTAS] | 1.21 ± 0.056 | 1.11 ± 0.077 | 1.1 ± 0.057
29 | SAGGFEFKAVKLKKNEEKEGELGGAKVRYVSDNKGPVYQVVEFGPEYRALAKVEGDKVELVAVEEGNPSAGG [r13_92_TrMRF] | 0.00343 ± 0.21 | -0.21 ± 0.16 | -1.02 ± 0.66
30 | SAGGFGIKIDEFDPDGEFRISIYDPDTWQPIAEFRIKIKPVPPPPPVEKRPYKDDDGEPKTVTHPDDQSAGG [r13_9_TrROS] | 1.73 ± 0.19 | 1.43 ± 0.2 | 0.542 ± 0.12
31 | SAGGFIRIETPNGKKISPEVREEAEEAIRDGDWDDAVKKISDWLRERFGHPMPIKIEVMMPPPKPPKSAGGS [r8_48_TrROS] | 1.19 ± 0.11 | 0.995 ± 0.18 | 0.547 ± 0.061
32 | SAGGFKIEIEKNPEPDGIVIVIEYDMPPKGIKDFIEELFGPNPKDVTTEEHPNGRTEVTFRIPPGAPSAGGS [r16_605_TrROS] | 0.33 ± 0.34 | 0.268 ± 0.3 | -0.426 ± 0.43
33 | SAGGFTIEFPLPPGESPDEIKDEIMDMVRPIADEHGFKNVKIPITNVRWQPPGRRRFTINIEIKFPGSAGGS [r8_184_TrROS] | 0.465 ± 0.24 | 0.727 ± 0.22 | 0.723 ± 0.16
34 | SAGGGADVISAYDPETVEELSKLPWVTSVTYDPETGRYDIRFERPDGQYNYVVDNVTKEVLEVSPVDSAGGS [r8_251_TrMRF] | 1.29 ± 0.053 | 1.3 ± 0.1 | 1.03 ± 0.07
35 | SAGGGALVLPDPDVPDDLPLVVVDPENGTVTLLHFDRETGRVRARVVRLGDGVPEEEEAVFPVAPDALSAGG [r13_851_TrMRF] | -0.261 ± 0.18 | 0.078 ± 0.11 | 0.242 ± 0.11
36 | SAGGGDLEVELVEEREFTFPDGLRRRLLVVRFPDGFLAIPVYVRPPGGGWRLLARFVLRIGPPRPEEGSAGG [r13_494_TrMRF] | 4.29 ± 0.043 | 3.82 ± 0.08 | 3.22 ± 0.054
37 | SAGGGDWYKVTVKVDGNPEVAEALVEKLLEEVGEEVVFEPRPGEQTVTFYVPKELLPLLEELGIEVEPSAGG [r13_156_TrMRF] | 2.632 ± 0.02 | 2.56 ± 0.13 | 2.24 ± 0.11
38 | SAGGGEKWKIKFKDAEAYINAPEGKVEIVPPDGSKITIDFPPDIPPEVVAKLLAEELGFDEAEIEPVESAGG [r13_852_TrMRF] | 0.357 ± 0.13 | 0.168 ± 0.14 | -0.263 ± 0.085
39 | SAGGGEYYAIVRIEVKDPESEETSELELVIPVEGLSEEEALEIARAIAETFPKENVKAEVEIVPRELSAGGS [r16_774_TrMRF] | 0.896 ± 0.16 | 0.936 ± 0.11 | 1.05 ± 0.043
40 | SAGGGFDPSKLKKEKTLTLTLPGNSETFTIELYLPEDGESTVVFSYNDKNYELTITKDSITLKPVSSSAGGS [r16_711_JUSTAS] | 3.01 ± 0.045 | 2.79 ± 0.2 | 2.38 ± 0.13
41 | SAGGGIVIPVPAETARELLEKLAPDGADVTVESLGSLGGGEVYRATFTDPVFGNTVDIEVLVGPEGGSAGGS [r16_486_TrMRF] | 0.301 ± 0.13 | 0.437 ± 0.096 | 0.392 ± 0.028
42 | SAGGGLANLSLEEIRQLLLEKFPELPVEVKVTPVDEKDGVVLVTVRPPLPDGSTVESEEELPLEPGLSAGGS [r16_564_JUSTAS] | -1.28 ± 0.41 | 0.229 ± 0.074 | 0.661 ± 0.025

From the supplement of paper PMC12764529
